Laboratory results from paper PMC5705280.

Biological target: Cul3 (Cullin3) (UniProt Q9JLV5)
Assay: co-IP
Conditions: reference: PHLPP2 wild type; sites S1119,S1210

binding against the reference: weaker
Substance: PHLPP2 (from UniProt Q6ZVD8) PHLPP2-2A (S1119A/S1210A)
